# Laboratory results: patent US20120184016A1, “NOVEL PROTEIN AND GENE THAT CODES THEREFOR” (priority 2009, published 2012)
# How the values were obtained:
# [1] = Enzyme activity of the sample after each purification step; assay type: biochemical
# Excerpt: The sialyltransferase activity may be measured by a known method, for example, the process described in J. Biochem., 120, 104-110 (1996) (which is hereby incorporated by reference in its entirety). For example, the enzyme activity can be evaluated by performing an enzyme reaction using CMP-NeuAc (N-acetylneuraminic acid) as a sugar donor substrate and lactose as a sugar acceptor substrate and evaluating the amount of the reaction product, i.e., sialyllactose. Note that one enzyme unit (1 U) of sialyltransferase is defined as the amount of the enzyme required to transfer one micromole of sialic acid per minute.
# Sialyltransferase activity was measured by a method described in J. Biochem., 120, 104-110 (1996) (which is hereby incorporated by reference in its entirety). Specifically, the enzyme reaction was performed using a reaction solution (30 μL) containing CMP-NeuAc (70 nmol, containing about 20000 cpm CMP-NeuAc in which NeuAc was labeled with ^14C; NeuAc represents N-acetylneuraminic acid) as a sugar donor substrate, lactose (1.25 μmol) as a sugar acceptor substrate, NaCl added to give a concentration of 0.5 M, and the enzyme prepared as described above. The enzyme reaction was carried out at 25° C. for about 10 to 180 minutes. After completion of the reaction, 1.97 mL of 5 mM phosphate buffer (pH 6.8) was added to the reaction solution, which was then applied to a Dowex 1×8 (PO4^3− form, 0.2×2 cm, manufactured by Bio-Rad Laboratories, Inc.) column. The radioactivity contained in the reaction product contained in the eluate (0 to 2 mL) from this column, that is, sialyllactose, was measured to calculate the enzyme activity. One enzyme unit (1 U) is defined as the amount of enzyme required to transfer one micromole of sialic acid per minute.
# The enzyme activity was measured by the method described in J. Biochem., 120, 104-110 (1996), as in Example 1. The amount of the protein was measured using a Coomassie Protein Assay Reagent (manufactured by Pierce) in accordance with the instruction manual attached thereto. One enzyme unit (1 U) was defined as the amount of enzyme required to transfer one micromole of sialic acid per minute.
# [2] = Confirmation of β-galactoside-α2,6-sialyltransferase activity with pyridylaminated lactose, HPLC; assay type: biochemical; conditions: enzyme expressed by E. coli transformed with SHIZ119-N1C0/pTrc99A
# Procedure: The linkage mode of sialic acid transferred to the sugar acceptor substrate can be determined by, but is not limited to, any procedure known to those skilled in the art, for example, a method using a pyridylaminated sugar chain or nuclear magnetic resonance spectroscopy (NMR) of the reaction product. The method using a pyridylaminated sugar chain involves an enzyme reaction using the pyridylaminated sugar chain as the sugar acceptor substrate. More specifically, an enzyme reaction is performed using pyridylaminated lactose (Galβ1-4Glc-PA, manufactured by Takara Bio Inc.) as a sugar acceptor substrate and CMP-NeuAc as a sugar donor substrate, and the reaction product is analyzed by high performance liquid chromatography (HPLC). From the retention time of the reaction product, the position at which sialic acid was transferred is determined.
# Then, to determine the linkage mode of sialic acid, a reaction using PA-lactose as a substrate was performed. The enzyme reaction was performed using the resulting crude enzyme solution and a pyridylaminated sugar chain as the sugar acceptor substrate. As the pyridylaminated sugar chain, pyridylaminated lactose (Galβ1-4Glc-PA, manufactured by Takara Bio Inc.) was used. […] The analysis was performed under the following conditions: flow rate: 1 mL/min, column temperature: 40° C., detection: fluorescence (Ex: 320 nm, Em: 400 nm). […]
molecule,measurement,setting,value
"SHIZ119-N1C0 (protein, beta-galacoside-alpha-2,6-sialyltransferase from phorobacterium leiognathi (without signal peptide)) MCNDNQNTVDVVVSTVNDNVIENNTYQVKPIDTPTTFDSYSWIQTCGTPILKDDEKYSLSFDFVAPELDQDEKFCFEFTGDVDGKRYVTQTNLTVVAPTLEVYVDHASLPSLQQLMKIIQQKNEYSQNERFISWGRIGLTEDNAEKLNAHIYPLAGNNTSQELVDAVIDYADSKNRLNLELNTNTAHSFPNLAPILRIISSKSNILISNINLYDDGSAEYVNLYNWKDTEDKSVKLSDSFLVLKDYFNGISSEKPSGIYGRYNWHQLYNTSYYFLRKDYLTVEPQLHDLREYLGGSLKQMSWDGFSQLSKGDKELFLNIVGFDQEKLQQEYQQSELPNFVFTGTTTWAGGETKEYYAQQQVNVVNNAINETSPYYLGREHDLFFKGHPRGGIINDIILGSFNNMIDIPAKVSFEVLMMTGMLPDTVGGIASSLYFSIPAEKVSFIVFTSSDTITDREDALKSPLVQVMMTLGIVKEKDVLFWSDLPDCSSGVCIAQY",Specific activity,[1]; sample: Crude enzyme solution,5.5 U/mg
same,Specific activity,[1]; sample: HAP,82.9 U/mg
same,Specific activity,[1]; sample: Mono-Q,36.2 U/mg
same,Specific activity,[1]; sample: Q-sepharose,35.6 U/mg
same,reaction product with PA-lactose and CMP-NeuAc (linkage mode of transferred sialic acid),[2],PA-6′-sialyllactose (Neu5Acα2-6Galβ1-4Glc-PA) was detected
